{"source": "paper PMC4167695", "about": "“Activation of c-Myc and Cyclin D1 by JCV T-Antigen and β-Catenin in Colon Cancer” (PLoS ONE, 2014)", "binders": {"B1": {"name": "JCV T-Antigen (natural protein)", "chain": "MDKVLNREESMELMDLLGLDRSAWGNIPVMRKAYLKKCKELHPDKGGDEDKMKRMNFLYKKMEQGVKVAHQPDFGTWNSSEVPTYGTDEWESWWNTFNEKWDEDLFCHEEMFASDDENTGSQHSTPPKKKKKVEDPKDFPVDLHAFLSQAVFSNRTVASFAVYTTKEKAQILYKKLMEKYSVTFISRHGFGGHNILFFLTPHRHRVSAINNYCQKLCTFSFLICKGVNKEYLFYSALCRQPYAVVEESIQGGLKEHDFNPEEPEETKQVSWKLVTQYALETKCEDVFLLMGMYLDFQENPQQCKKCEKKDQPNHFNHHEKHYYNAQIFADSKNQKSICQQAVDTVAAKQRVDSIHMTREEMLVERFNFLLDKMDLIFGAHGNAVLEQYMAGVAWIHCLLPQMDTVIYDFLKCIVLNIPKKRYWLFKGPIDSGKTTLAAALLDLCGGKSLNVNMPLERLNFELGVGIDQFMVVFEDVKGTGAESRDLPSGHGISNLDCLRDYLDGSVKVNLERKHQNKRTQVFPPGIVTMNEYSVPRTLQARFVRQIDFRPKAYLRKSLSCSEYLLEKRILQSGMTLLLLLIWFRPVADFAAAIHERIVQWKERLDLEISMYTFSTMKANVGMGRPILDFPREEDSEAEDSGHGSSTESQSQCFSQVSEASGADTQENCTFHICKGFQCFKKPKTPPPK"}}, "biological_target": "T1, β-catenin (human (endogenous in HCT116), UniProt P35222 1-781)", "T1 sequence (looked up)": "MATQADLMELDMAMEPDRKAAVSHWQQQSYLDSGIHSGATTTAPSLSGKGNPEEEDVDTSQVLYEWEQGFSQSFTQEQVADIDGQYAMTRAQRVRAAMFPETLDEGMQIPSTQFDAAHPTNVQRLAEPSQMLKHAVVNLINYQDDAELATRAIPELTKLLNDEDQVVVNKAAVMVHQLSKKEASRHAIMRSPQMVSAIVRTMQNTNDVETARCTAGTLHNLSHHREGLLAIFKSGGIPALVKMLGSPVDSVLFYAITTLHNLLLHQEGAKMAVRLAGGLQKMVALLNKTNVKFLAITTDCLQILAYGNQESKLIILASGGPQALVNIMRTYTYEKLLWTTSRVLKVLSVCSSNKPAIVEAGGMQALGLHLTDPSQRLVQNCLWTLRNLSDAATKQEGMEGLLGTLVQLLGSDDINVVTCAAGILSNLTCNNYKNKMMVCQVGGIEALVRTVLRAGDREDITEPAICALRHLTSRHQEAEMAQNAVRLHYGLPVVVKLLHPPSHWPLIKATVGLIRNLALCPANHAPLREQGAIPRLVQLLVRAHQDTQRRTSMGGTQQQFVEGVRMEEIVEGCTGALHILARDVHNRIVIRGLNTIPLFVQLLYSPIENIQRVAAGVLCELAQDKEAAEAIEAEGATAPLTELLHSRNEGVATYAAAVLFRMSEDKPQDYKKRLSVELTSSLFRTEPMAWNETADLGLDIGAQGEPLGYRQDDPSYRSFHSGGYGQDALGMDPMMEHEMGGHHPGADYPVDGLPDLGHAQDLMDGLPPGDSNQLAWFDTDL", "experiment": "cell-based or functional assay"}
{"binder": "B1", "values": [{"measurement": "Cyclin D1 promoter luciferase activity in HCT116 cells co-transfected with T-Antigen and β-catenin, over empty vector controls", "value": 11.7, "unit": "fold"}, {"measurement": "TOPflash (TCF-dependent luciferase reporter) activity in HCT116 cells co-transfected with T-Antigen and exogenous β-catenin, 24 hours post-transfection, normalized to FOPflash", "value": 113, "unit": "fold"}, {"measurement": "c-Myc promoter luciferase activity in HCT116 cells co-transfected with T-Antigen and β-catenin, over empty vector controls", "value": 6.1, "unit": "fold"}]}
